# Measurements from patent US20160289299A1.
# How the values were obtained:
# [1] = tested on: ^superFVa (recombinant super factor five, thrombin-activated)
# [2] = target: recombinant human wild-type FVa (UniProt P12259)
# [3] = target: ^superFVa (recombinant super factor five, thrombin-activated) (human) (UniProt P12259); test: cell-based or functional assay
# [4] = target: recombinant human wild-type FVa (UniProt P12259); test: cell-based or functional assay
# Chain of ^superFVa (recombinant super factor five, thrombin-activated) (chain, as listed by the source): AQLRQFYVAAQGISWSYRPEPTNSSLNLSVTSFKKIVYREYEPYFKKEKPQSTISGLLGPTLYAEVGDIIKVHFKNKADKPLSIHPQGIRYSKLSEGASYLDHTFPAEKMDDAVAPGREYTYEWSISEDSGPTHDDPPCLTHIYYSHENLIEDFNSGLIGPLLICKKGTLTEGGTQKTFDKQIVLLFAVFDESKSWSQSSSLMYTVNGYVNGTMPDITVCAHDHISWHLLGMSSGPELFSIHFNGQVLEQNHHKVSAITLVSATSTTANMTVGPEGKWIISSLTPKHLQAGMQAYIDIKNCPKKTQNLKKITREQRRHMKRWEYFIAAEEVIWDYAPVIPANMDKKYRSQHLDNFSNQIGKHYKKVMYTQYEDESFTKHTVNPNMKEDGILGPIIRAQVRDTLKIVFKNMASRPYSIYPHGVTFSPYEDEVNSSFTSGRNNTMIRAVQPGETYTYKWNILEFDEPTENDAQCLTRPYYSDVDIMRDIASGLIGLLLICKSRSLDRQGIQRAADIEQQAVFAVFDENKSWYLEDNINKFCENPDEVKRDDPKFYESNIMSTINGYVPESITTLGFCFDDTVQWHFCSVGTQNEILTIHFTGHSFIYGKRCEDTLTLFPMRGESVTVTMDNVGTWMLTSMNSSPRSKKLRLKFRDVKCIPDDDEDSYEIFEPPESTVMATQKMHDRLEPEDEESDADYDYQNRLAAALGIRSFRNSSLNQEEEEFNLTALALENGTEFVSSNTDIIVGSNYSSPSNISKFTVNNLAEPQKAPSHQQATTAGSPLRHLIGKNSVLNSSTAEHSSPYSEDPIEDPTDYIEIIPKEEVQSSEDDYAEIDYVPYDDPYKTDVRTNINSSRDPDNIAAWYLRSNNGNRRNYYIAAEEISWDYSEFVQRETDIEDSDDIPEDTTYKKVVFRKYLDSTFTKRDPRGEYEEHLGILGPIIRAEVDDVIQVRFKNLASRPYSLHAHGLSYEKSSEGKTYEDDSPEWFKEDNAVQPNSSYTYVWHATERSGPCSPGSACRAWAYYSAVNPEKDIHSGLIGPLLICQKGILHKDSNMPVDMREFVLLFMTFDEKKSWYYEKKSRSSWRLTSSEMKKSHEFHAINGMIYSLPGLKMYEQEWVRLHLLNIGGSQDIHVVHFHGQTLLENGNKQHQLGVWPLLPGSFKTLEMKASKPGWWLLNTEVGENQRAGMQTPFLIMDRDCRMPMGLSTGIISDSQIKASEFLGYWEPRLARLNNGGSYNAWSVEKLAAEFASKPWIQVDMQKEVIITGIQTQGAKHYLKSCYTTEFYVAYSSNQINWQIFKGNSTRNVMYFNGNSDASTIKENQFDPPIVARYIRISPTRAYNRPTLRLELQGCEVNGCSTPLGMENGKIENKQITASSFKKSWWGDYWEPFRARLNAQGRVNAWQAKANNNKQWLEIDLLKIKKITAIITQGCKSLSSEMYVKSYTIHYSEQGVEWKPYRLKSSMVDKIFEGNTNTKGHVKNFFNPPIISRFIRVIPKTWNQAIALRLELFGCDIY
Substance,ETP restored in human or murine plasma in the presence of APC [1],aPTT in human plasma with APC at 0.05 U/mL FVa variant [1],aPTT in murine plasma with human APC at 5 U/mL FVa variant [1],"aPTT normalisation in human plasma with 10 nM APC, concentration relative to FVa [1]",ETP restored in human or murine plasma in the presence of APC [2],aPTT in human plasma with APC at 0.05 U/mL FVa variant [2],aPTT in murine plasma with human APC at 5 U/mL FVa variant [2],ex vivo whole blood aPTT after intravenous APC (0.5 mg/kg) in Balb/c mice [3],ex vivo whole blood aPTT after intravenous APC (0.5 mg/kg) in Balb/c mice [4]
recombinant human Activated Protein C (Xigris),Only ^superFVa restored ETP to ˜90-100% in human or murine plasma at concentrations where FVa did not show effects,"At 0.05 U/mL FVa variants, ^superFVa fully corrected the aPTT",At 5 U/mL FVa variants ^superFVa fully corrected the aPTT,in human plasma ^superFVa normalized the aPTT at 100-fold lower concentrations compared to FVa,at concentrations where FVa did not show effects,FVa shortened the aPTT only from ˜100 to 80 seconds,FVa shortened the aPTT only from ˜100 to 70 seconds,–,–
recombinant murine Activated Protein C (from UniProt P33587 42-460) (enzyme),–,–,–,–,–,–,–,30 s,50 s
